# From US7393946
# Tested on: ORCA-3 (Catharanthus roseus)
# Experiment: cell_activity
# Conditions: GUS/CAT, C. roseus cells
# Chain of ORCA-3 (Catharanthus roseus) (chain, as listed by the source): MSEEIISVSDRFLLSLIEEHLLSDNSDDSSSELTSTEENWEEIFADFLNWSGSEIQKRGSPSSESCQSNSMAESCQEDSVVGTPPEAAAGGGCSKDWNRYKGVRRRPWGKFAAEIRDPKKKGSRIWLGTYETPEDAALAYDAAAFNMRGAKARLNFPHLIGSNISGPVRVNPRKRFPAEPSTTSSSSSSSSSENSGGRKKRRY
substance,measurement,value
Str1 NH promoter (-202 to -1),activity (fold activation),5
